# Molecular target: human serum albumin (human) (UniProt P02768)
# Experiment: primary solution ELISA screen
# Sequence of human serum albumin (human) (P02768 25-609 limits assumed): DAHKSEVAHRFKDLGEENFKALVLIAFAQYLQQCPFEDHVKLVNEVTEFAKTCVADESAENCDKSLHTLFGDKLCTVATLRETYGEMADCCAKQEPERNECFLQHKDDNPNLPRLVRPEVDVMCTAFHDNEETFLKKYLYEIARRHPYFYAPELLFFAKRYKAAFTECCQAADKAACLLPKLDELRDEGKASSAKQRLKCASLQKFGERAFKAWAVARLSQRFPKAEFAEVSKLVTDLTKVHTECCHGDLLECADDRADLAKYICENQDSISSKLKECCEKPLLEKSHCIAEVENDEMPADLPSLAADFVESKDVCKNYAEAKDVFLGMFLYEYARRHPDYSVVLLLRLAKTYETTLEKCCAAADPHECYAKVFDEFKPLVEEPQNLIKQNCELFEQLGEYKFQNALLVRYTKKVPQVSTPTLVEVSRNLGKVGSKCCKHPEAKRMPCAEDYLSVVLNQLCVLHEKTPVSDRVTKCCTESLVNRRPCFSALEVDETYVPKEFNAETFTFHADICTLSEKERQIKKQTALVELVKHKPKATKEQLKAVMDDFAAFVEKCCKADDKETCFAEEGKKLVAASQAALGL
row,Binder,RLU [RLU]
1,"SEQ ID NO 6 (designed binder, not shown: small tags and cut ends) MLPAPKNLVVSRVTEDSARLSWTAPDAAFDSFPIIYMETFSRGEAIVLTVPGSERSYDLTGLKPGTEYRVPIGGVKGGSSSCPLSAIFTT",7300
2,"SEQ ID NO 10 (designed binder, not shown: small tags and cut ends) MLPAPKNLVVSRVTEDSARLSWTAPDAAFDSFKIAYIETATRGEAIVLTVPGSERSYDLTGLKPGTEYVVPIPGVKGGNTSSPLSAIFTT",29300
3,"SEQ ID NO 37 (designed binder, not shown: small tags and cut ends) MLPAPKNLVVSRVTEDSARLSWTTPDAAFDSFPIYYWEVTITGEAIYLSVPGSERSYDLTGLKPGTEYPVDIPGVKGGAASPPLSAIFTT",28600
4,"SEQ ID NO 72 (designed binder, not shown: small tags and cut ends) MLPAPKNLVVSRVTEDSARLSWTAPDAAFDSFTIGYREWYWYGEAIVLTVPGSERSYDLTGLKPGTEYNVPISGVKGGLDSFPLSAIFTT",8950
5,"SEQ ID NO 75 (designed binder, not shown: small tags and cut ends) MLPAPKNLVVSRVTEDSARLSWTAPDAAFDSFTISYGEEALIGEAIYLRVPGSERSYDLTGLKPGTEYYVHIEGVKGGSWSQPLAAAFTT",3700
6,"SEQ ID NO 38 (designed binder, not shown: small tags and cut ends) MLPAPKNLVVSRVTEDSARLSWTAPDAAFDSFPILYLEHTVRSEAIVLTVPGSERSYDLTDLKPGTEYCVPIDGVKGGLRSRPLSAIFTT",8150
7,"SEQ ID NO 63 (designed binder, not shown: small tags and cut ends) MLPAPKNLVVSRVTEDSARLSWTAPDAAFDSFCISYYERMGRGEAIVLTVPGSERSYDLTGLKPGTEYMVYIFGVKGGLNSLPLSAIFTT",5700
8,"SEQ ID NO 48 (designed binder, not shown: small tags and cut ends) MLPAPKNLVVSRVTEDSARLSWTAPDAAFDSFLIYYEEGYLEYYYSGEAIVLTVPGSERSYDLTGLKPGTEYYVGIVGVKGGGLSGPLSAISTT",115000
9,"SEQ ID NO 1 (designed binder, not shown: small tags and cut ends) MLPAPKNLVVSRVTEDSARLSWTAPDAAFDSFPITYIEAVVLGEAIVLTVPGSERSYDLTGLKPGTEYPVGISGVKGGHNSMPLSAIFTT",15800
10,"SEQ ID NO 78 (designed binder, not shown: small tags and cut ends) MLPAPKNLVVSRVTEDSARLSWTAPDAAFDSFGIGYYEHKRFGEAIQLSVPGSERSYDLTGLKPGTEYEVDIEGVKGGVLSWPLFAEFTT",9350
11,"SEQ ID NO 39 (designed binder, not shown: small tags and cut ends) MLPAPKNLVVSRVTEDSARLSWTAPDAAFDSFPIPYTEPPDPGEAIVLTVPGSERSYDLTGLKPGTEYLVTILGVKGGSMSVPLSAIFTT",51100
12,"SEQ ID NO 40 (designed binder, not shown: small tags and cut ends) MLPAPKNLVVSRVTEDSARLSWTAPDAAFDSFTIDYWENRCPGEAIVLTVPGSERSYDLTGLKPGTEYCVWISGVKGGYSSWPLSAIFTT",13600
13,"SEQ ID NO 66 (designed binder, not shown: small tags and cut ends) MLPAPKNLVVSRVTEDSARLSWTAPDAAFDSFTIDYDEPRSPGEAIVLTVPGSERSYDLTGLKPGTEYRVFIWGIKGGDTSFPLSAIFTT",8100
14,"SEQ ID NO 62 (designed binder, not shown: small tags and cut ends) MLPAPKNLVVSRVTEDSARLSWTAPDAAFDSFKIRYTETRSIGEAIVLTVPGSERSYDLTGLKPGTEYCVPIGGVKGGDSSWPLSAISTT",8100
15,"SEQ ID NO 54 (designed binder, not shown: small tags and cut ends) MLPAPKNLVVSRVTEDSARLSWTAPDAAFDSFAIAYGEHIVIGEAIVLTVPGSERSYDLTGLKPGTEYMVPIAGVKGGPISLPLSAIFTT",11700
16,"SEQ ID NO 76 (designed binder, not shown: small tags and cut ends) MLPAPKNLVVSRVTEDSARLSWTAPDAAFDSFTIEYYENIGIGEAIVLTVPGSERSYDLTGLKPGTEYSVPIVGVKGGPYSHPLSAIFTT",16300
17,"SEQ ID NO 61 (designed binder, not shown: small tags and cut ends) MLPAPKNLVVSRVTEDSARLSWTAPDAAFDSFQIVYSELWIKGEAIVLTVPGSERSYDLTGLKPGTEYQVPIPGVKGGRNSFPLSAIFTT",13600
18,"SEQ ID NO 79 (designed binder, not shown: small tags and cut ends) MLPAPKNLVVSRVTEDSARLSWTAPDAAFDSFVIEYTERFWSGEAIVLTVPGSERSYDLTGLKPGTEYSVPIDGVKGGQCSTPLSAIFTT",6000
19,"SEQ ID NO 59 (designed binder, not shown: small tags and cut ends) MLPAPKNLVVSRVTEDSARLSWTAPDAAFDSFVYNEVHWIGEAIVLTVPGSERSYDLTGLKPGTEYFVGIYGVKGGHWSKPLSAIFTT",16400
20,"SEQ ID NO 67 (designed binder, not shown: small tags and cut ends) MLPAPKNLVVSRVTEDSARLSWTAPDAAFDSFTILYAEQAQFGEAIVLTVPGSERSYDLTGLKPGTEYPITGVKGGTRSGPLSAISTT",14200
21,"SEQ ID NO 43 (designed binder, not shown: small tags and cut ends) MLPAPKNLVVSRVTEDSARLSWTAPDAAFDSFMIVYYEYTRFGEAIVLTVPGSERSYDLTGLKPGTEYTVPIDGVKGGGRSSPLSAIFTT",21500

row,Binder,RLU [RLU]
1,"SEQ ID NO 47 (designed binder, not shown: small tags and cut ends) MLPAPKNLVVSRVTEDSARLSWTAPDAAFDSFGIVYLEMMVTGEAIVLTVPGSERSYDLTGLKPGTEYDVPILGVKGGTRSVPLSAIFTT",20400
2,"SEQ ID NO 4 (designed binder, not shown: small tags and cut ends) MLPAPKNLVVSEVTEDSARLSWQGVARAFDSFLITYRDQIFAGEVIVLTVPGSERSYDLTGLKPGTEYPVWIQGVKGGSPSAPLSAESTT",174000
3,"SEQ ID NO 53 (designed binder, not shown: small tags and cut ends) MLPAPENLVVSEVTEDSARLSWQGVARAFDSFLITYREQIFAGEVIVLTVPGSERSYDLTGLKPGTEYPVWIQGVKGGSPSAPLSAESTT",32000
4,"SEQ ID NO 7 (designed binder, not shown: small tags and cut ends) MLPAPKNLVVSDVTEDSARLSWQGVARAFDSFLITYREQIFAGEVIVLTVPGSERSYDLTGLKPGTEYPVWIQGVKGGSPSAPLSAEFTT",26100
5,"SEQ ID NO 41 (designed binder, not shown: small tags and cut ends) MLPAPKNLVVSRVTEDSARLSWQGVARAFDSFLITYREQIFAGEVIVLTVPGSERSYDLTGLKPGTEYPVWIQGVKGGHLSDPLSAIVTT",115000
6,"SEQ ID NO 73 (designed binder, not shown: small tags and cut ends) MLPAPKNLVVSEVTEDSARLSWQGVARAFDSFLITYREQIFAGEVIVLTVPGSERSYDLTGLKPGTEYPVWIQGVKGGSPSAPLSAESTT",20200
7,"SEQ ID NO 70 (designed binder, not shown: small tags and cut ends) MLPAPKNLVVSRVTEDSARLSWQGVARAFDSFLITYREQIFAGEVIVLTVPGSERSYDLTGLKPGTEYPVWIQGVKGGDLSNPLSAIFTT",94800
8,"SEQ ID NO 5 (designed binder, not shown: small tags and cut ends) MLPAPKNLVVSEVTEDSARLSWQGVARAFDSFLITYREQIFAGEVIVLTVPGSERSYDLTGLKPGTEYWVYIWGVKGGKPSFPLRAGFTT",45000
9,"SEQ ID NO 42 (designed binder, not shown: small tags and cut ends) MLPAPKNLVVSRVTEDSARLSWTAPDAAFDSFLIPYAETSPSGEAIVLTVPGSERSYDLTGLKPGTEYSVLIHGVKGGDYSEPLSAIFTT",1000
10,"SEQ ID NO 46 (designed binder, not shown: small tags and cut ends) MLPAPKNLVVSRVTEDSARLSWTAPDAAFDSFIIPYAEVRPDGEAIVLTVPGSERSYDLTGLKPGTEYSVLIHGVKGGKLSLPLSAIFTT",8150
11,"SEQ ID NO 64 (designed binder, not shown: small tags and cut ends) MLPAPKNLVVSRVTEDSARLSWTAPDAAFDSFYIVYAEPIPNGEAIVLTVPGSERSYDLTGLKPGTEYSVLIHGVKGGRNSDPLSAIFTT",6000
12,"SEQ ID NO 44 (designed binder, not shown: small tags and cut ends) MLPAPKNLVVSRVTEDSARLSWTAPDAAFDSFFIPYAEPSPTGEAIVLTVPGSERSYDLTGLKPGTEYSVLIHGVKGGHLSDPLSAIVTT",56600
13,"SEQ ID NO 57 (designed binder, not shown: small tags and cut ends) MLPAPKNLVVSRVTEDSARLSWTAPDAAFDSFAIPYAELSRNGEAIVLTVPGSERSYDLTGLKPGTEYTVLIHGVKGGCLSDPLSAIFTT",38800
14,"SEQ ID NO 65 (designed binder, not shown: small tags and cut ends) MLPAPKNLVVSRVTKDSARLSWTAPDAAFDSFPIAYAEPRPDGEAIVLTVPGSERSYDLTGLKPGTEYSVLIHGVKGGLLSSPLSAIFTT",16000
15,"SEQ ID NO 77 (designed binder, not shown: small tags and cut ends) MLPAPKNLVVSRVTEDSARLSWTAPDAAFDSFPIAYAEPRPDGEAIVLTVPGSERSYDLTGLKPGTEYSVLIHGVKGGLLSSPLSAIFTT",10400
16,"SEQ ID NO 68 (designed binder, not shown: small tags and cut ends) MLPAPKNLVVSRVTEDSARLSWTAPDAAFDSFIIPYAEVRPDGEAIVLTVPGSERSYDLTGLKPGTEYSVLIHGVKGGHLSDPLSAISTT",38400
17,"SEQ ID NO 50 (designed binder, not shown: small tags and cut ends) MSLPAPKNLVVSRVTEDSARLSWTAPDAAFDSFTIHYREFQLSGEAIVLTVPGSERSYDLTGLKPGTEYDVPIEGVKGGPGSRPLSAIFTT",16000
18,"SEQ ID NO 56 (designed binder, not shown: small tags and cut ends) MLPAPKNLVVSRVTEDSARLSWTAPDAAFDSFSIGYVELVLLGEAIVLTVPGSERSYDLTGLKPGTEYDVLIPGVKGGSLSRPLSAIFTT",19400
19,"SEQ ID NO 71 (designed binder, not shown: small tags and cut ends) MLPAPKNLVVSRVTEDSARLSWTAPDAAFDSFPISYLELSLYGEAIVLTVPGSERSYDLTGLKPGTEYPVGIAGVKGGVVSRPLSAIFTT",27500
20,"SEQ ID NO 74 (designed binder, not shown: small tags and cut ends) MLPAPKNLVVSRVTEDSARLSWTAPDAAFDSFSITYLEWWNLGEAIVLTVPGSERSYDLTGLKPGTEYMVTIPGVKGGMSSYPLSAIFTT",14600

# Source: US20220332795A1
